According to patent publication US20160317656A1 (Daiichi Sankyo, published 2016):

T1: human FGFR2 IIIb variant protein (isoform 2: NP_075259), expressed on transfected cells (human, UniProt P21802 22-821)
T1 construct: also called pcDNA-DEST40-FGFR2 IIIb
T1 chain: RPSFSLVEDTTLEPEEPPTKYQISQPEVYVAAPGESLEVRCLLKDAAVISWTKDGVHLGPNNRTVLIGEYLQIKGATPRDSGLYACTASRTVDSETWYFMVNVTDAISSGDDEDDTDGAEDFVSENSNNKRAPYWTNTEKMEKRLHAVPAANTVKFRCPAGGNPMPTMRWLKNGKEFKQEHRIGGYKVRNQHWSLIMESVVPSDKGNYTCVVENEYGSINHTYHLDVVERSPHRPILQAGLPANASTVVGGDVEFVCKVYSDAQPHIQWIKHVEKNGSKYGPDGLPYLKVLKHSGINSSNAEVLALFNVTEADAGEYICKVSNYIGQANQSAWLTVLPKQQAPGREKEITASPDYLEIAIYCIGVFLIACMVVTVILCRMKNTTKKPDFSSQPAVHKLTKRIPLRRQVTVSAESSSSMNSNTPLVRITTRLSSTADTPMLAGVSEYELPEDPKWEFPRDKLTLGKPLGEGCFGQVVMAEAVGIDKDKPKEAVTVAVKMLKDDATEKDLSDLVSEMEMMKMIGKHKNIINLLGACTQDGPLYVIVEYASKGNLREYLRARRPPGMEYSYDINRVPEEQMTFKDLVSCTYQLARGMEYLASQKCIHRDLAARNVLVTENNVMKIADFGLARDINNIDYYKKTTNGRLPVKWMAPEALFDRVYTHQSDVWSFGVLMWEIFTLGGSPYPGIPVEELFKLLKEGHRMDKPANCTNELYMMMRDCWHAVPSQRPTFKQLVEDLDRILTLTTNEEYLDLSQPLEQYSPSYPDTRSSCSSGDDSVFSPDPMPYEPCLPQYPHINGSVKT


What was measured:
[1] = target: T1, human FGFR2 IIIb variant protein …; assay: flow cytometry, hybridoma supernatant on transfected HEK293T cells
Description: (§1) The cell suspension was centrifuged to remove the supernatant. […] The cells were washed twice with PBS containing 5% FBS, then suspended by the addition of Anti-Rat IgG FITC conjugate (manufactured by Sigma-Aldrich Corp.) diluted 320-fold with PBS containing 5% FBS, and left standing at 4° C. for 1 hour. The cells were washed 3 times with PBS containing 5% FBS and then resuspended in PBS containing 5% FBS and 2 μg/ml 7-aminoactinomycin D (manufactured by Molecular Probes, Inc.), followed by detection using a flow cytometer (FC500; manufactured by Beckman Coulter Inc.). The data was analyzed using Flowjo (manufactured by Tree Star Inc.). After removal of 7-aminoactinomycin D-positive dead cells by gating, the FITC fluorescence intensity of live cells was plotted to a histogram to calculate average fluorescence intensity (MFI).

[2] = target: T1, human FGFR2 IIIb variant protein …; assay: Cell-ELISA on transfected 293 alpha cells, antibody 2 ug/ml
Description: (§2) The resulting cells were dispensed in an amount of 100 μl/well to a 96-well plate (manufactured by Corning Inc.) and cultured overnight at 37° C. under 5% CO₂ conditions in a DMEM medium containing 10% FBS. The obtained transfected cells were used in the attached state in Cell-ELISA. […] The cells in the wells were washed once with PBS containing 5% FBS. Then, Anti-Human IgG-Peroxidase antibody produced in goat (manufactured by Sigma-Aldrich Corp.) diluted 500-fold with PBS containing 5% FBS was added thereto, and the plate was left standing at 4° C. for 1 hour. The cells in the wells were washed 5 times with PBS containing 5% FBS. Then, an OPD chromogenic solution (OPD solution (o-phenylenediamine dihydrochloride (manufactured by Wako Pure Chemicals Industries, Ltd.) and H₂O₂ dissolved at concentrations of 0.4 mg/ml and 0.6% (v/v), respectively, in 0.05 M trisodium citrate and 0.1 M disodium hydrogen phosphate dodecahydrate, pH 4.5)) was added thereto at a concentration of 100 μl/well. Color reaction was performed with occasional stirring and stopped by the addition of 1 M HCl at a concentration of 100 μl/well. Then, the absorbance was measured at 490 nm using a plate reader (ARVO; PerkinElmer, Inc.).

[3] = target: T2, human FGFR2 IIIc variant protein (isoform 1: NP_000132), expressed on transfected cells (human, UniProt P21802 22-821); assay: flow cytometry, hybridoma supernatant on transfected HEK293T cells
T2 construct: also called pcDNA-DEST40-FGFR2 IIIc
Description: as §1

[4] = target: T2, human FGFR2 IIIc variant protein …; assay: Cell-ELISA on transfected 293 alpha cells, antibody 2 ug/ml
Description: as §2

[5] = target: T2, human FGFR2 IIIc variant protein …; assay: flow cytometry on transfected HEK293T cells
Description: as §1

Binder	binding result [1]	binding result [2]	binding result [4]	also measured
rat anti-human FGFR2 monoclonal antibody FR2-10 (antibody, V domains shown, Used as hybridoma culture supernatant or purified from mouse ascites; also called rat FR2-10 antibody) VH: EVQLVESGGGLVQPGRSLKLSCVASGFRFNDFWMTWIRQAPGKGLEWVASITYTGDNTYYAGSVKGRITISRDNAKSTLYLQMNSLRSEDTATYYCTRDDYGGYSPYYMDAWGQGTSVTVSS VL: DIQMTQSPSSLSAFLGDRVTITCRASQDIGNYLRWFQQKPGKSPRLMIYGATNLANGVPSRFSGSRSGSDYSLTINNLESEDMAIYYCLKHNEYPFTFGSGTKLEIKR	binds	–	–	–
human chimeric anti-FGFR2 antibody cFR2-10 (antibody, human IgG1, V domains shown, Rat FR2-10 variable regions on human IgG1 / kappa constant regions; also called human chimeric FR2-10) VH: EVQLVESGGGLVQPGRSLKLSCVASGFRFNDFWMTWIRQAPGKGLEWVASITYTGDNTYYAGSVKGRITISRDNAKSTLYLQMNSLRSEDTATYYCTRDDYGGYSPYYMDAWGQGTSVTVSS VL: DIQMTQSPSSLSAFLGDRVTITCRASQDIGNYLRWFQQKPGKSPRLMIYGATNLANGVPSRFSGSRSGSDYSLTINNLESEDMAIYYCLKHNEYPFTFGSGTKLEIKR	–	binds	–	–
rat anti-human FGFR2 monoclonal antibody FR2-13 (antibody, V domains shown, Used as hybridoma culture supernatant or purified from mouse ascites; also called rat FR2-13 antibody) VH: QVKLLQSGAELVKPGASVKLSCKTSGFTFSTSYMSWLKQVPGPSIEWIGWIYAGDGGTKYNQKFKGKATLTVDKSSSTAYMDLSSLTSEDAAVYFCATDGYGDWFAYWGQGTLVTVSS VL: DIQMTQSPASLSASLGETVTIECRASEDIYSNLAWYQQKPGNSPQLLIYDANILADGVPSRFSGSGSGTQYSLKINSLQSEDVASYFCQQYNNYPPFTFGVGTKLELKR	binds	–	–	binding result [3]: binds
human chimeric anti-FGFR2 antibody cFR2-13 (antibody, human IgG1, V domains shown, Rat FR2-13 variable regions on human IgG1 / kappa constant regions; also called human chimeric FR2-13) VH: QVKLLQSGAELVKPGASVKLSCKTSGFTFSTSYMSWLKQVPGPSIEWIGWIYAGDGGTKYNQKFKGKATLTVDKSSSTAYMDLSSLTSEDAAVYFCATDGYGDWFAYWGQGTLVTVSS VL: DIQMTQSPASLSASLGETVTIECRASEDIYSNLAWYQQKPGNSPQLLIYDANILADGVPSRFSGSGSGTQYSLKINSLQSEDVASYFCQQYNNYPPFTFGVGTKLELKR	–	binds	binds	–

Continued, in another order:

binding result [1]	binding result [2]	binding result [4]	Binder	also measured
binds	–	–	rat anti-human FGFR2 monoclonal antibody FR2-14 (antibody, V domains shown, Used as hybridoma culture supernatant or purified from mouse ascites; also called rat FR2-14 antibody) VH: QVKLLQSGAELVKPGASVKLSCKTSGFTFSTSYMSWLKQVPGPSTEWIGWIYAGDGGTKYNQKFKGKATLTVDKFSSTAYMDLSSLTSEDAAVYFCATDGYGDWFTYWGQGTLVTVSS VL: DIQMTQSPASLSASLGETVTIECRASEDIYSNLAWYQQKPGNSPQLLIYDANILADGVPSRFSGSGSGTQYSLKINSLQSEDVASYFCQQYNNYPPFTFGAGTKLELKR	binding result [5]: binds
–	binds	binds	human chimeric anti-FGFR2 antibody cFR2-14 (antibody, human IgG1, V domains shown, Rat FR2-14 variable regions on human IgG1 / kappa constant regions; also called human chimeric FR2-14) VH: QVKLLQSGAELVKPGASVKLSCKTSGFTFSTSYMSWLKQVPGPSTEWIGWIYAGDGGTKYNQKFKGKATLTVDKFSSTAYMDLSSLTSEDAAVYFCATDGYGDWFTYWGQGTLVTVSS VL: DIQMTQSPASLSASLGETVTIECRASEDIYSNLAWYQQKPGNSPQLLIYDANILADGVPSRFSGSGSGTQYSLKINSLQSEDVASYFCQQYNNYPPFTFGAGTKLELKR	–
